Common to all, as to test: SPR, 25C
(In general: Surface plasmon resonance follows binding to a sensor surface in real time, without labels.)

The target in test [1] is T1, hIL-36R-His (human).
T1 chain: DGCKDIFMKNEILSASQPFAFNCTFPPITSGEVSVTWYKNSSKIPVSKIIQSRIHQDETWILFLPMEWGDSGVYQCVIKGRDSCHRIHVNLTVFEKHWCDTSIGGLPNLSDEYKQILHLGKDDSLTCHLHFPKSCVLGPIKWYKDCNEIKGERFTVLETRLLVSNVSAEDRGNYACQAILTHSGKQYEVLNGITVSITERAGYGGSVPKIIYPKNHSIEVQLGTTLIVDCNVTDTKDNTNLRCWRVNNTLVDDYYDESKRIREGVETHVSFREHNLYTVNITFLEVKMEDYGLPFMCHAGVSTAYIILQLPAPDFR

The target in test [2] is T1, hIL-36R-His.
In test [3] the target is T1, hIL-36R-His.
The target of test [4] is hIL-1R3-His (human).
Test [5] addresses hIL-1R3-His (human). This is another data set of the same source.

Read-outs that look alike come from different tables or passages of the source.

5 molecules from US20260356958 (published 2026) can be followed below.

By Kd is commonly meant the equilibrium constant for the complex coming apart. Higher therefore signals a looser complex.

hIL-1R3-His (human), sequence (chain, as listed by the source): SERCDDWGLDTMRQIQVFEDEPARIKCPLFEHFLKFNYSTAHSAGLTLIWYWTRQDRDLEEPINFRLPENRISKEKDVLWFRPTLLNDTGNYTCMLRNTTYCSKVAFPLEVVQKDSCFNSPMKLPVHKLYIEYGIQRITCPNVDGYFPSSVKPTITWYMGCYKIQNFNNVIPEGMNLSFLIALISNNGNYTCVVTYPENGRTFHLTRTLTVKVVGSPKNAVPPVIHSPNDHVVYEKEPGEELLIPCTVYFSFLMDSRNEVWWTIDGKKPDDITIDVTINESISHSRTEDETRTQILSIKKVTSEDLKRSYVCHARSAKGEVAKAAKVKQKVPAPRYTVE

B1: Common light chain bispecific antibody, IL-36R arm (R72B7VH+L36E9VK) (antibody, V domains shown)
VH: QVQLVQSGAEVKKPGASVKVSCKASGYSFTSSWIHWVKQAPGQGLEWMGEINPGNVRSNYNENFRNKVTMTVDTSISTAYMELSRLRSDDTAVYYCTVINYGEPYFASWGQGTLVTVSS
VL: EIVLTQSPGTLSLSPGERATLSCRASQSVIGSYLAWYQQKPGQAPRLLIYSASKLASGIPDRFSGSGSGTDFTLTISRLEPEDFAVYYCQQDTRYPITFGQGTKVEIK
The molecule B1 registered a Kd with hIL-36R-His [1] of 1.29 nM.

B2: Crossmab bispecific antibody, IL-36R arm (antibody, V domains shown)
VH: QVQLVQSGAEVKKPGASVKVSCKASGYSFTSSWIHWVRQAPGQGLEWMGEINPGSGRSNYNENFQGRVTMTVDTSISTAYMELSRLRSDDTAVYYCTVVFYGEPYFPFWGQGTLVTVSS
VL: EIVLTQSPGTLSLSPGERATLSCRASQSVIYSYLAWYQQKPGQAPRLLIYSASKRASGIPDRFSGSGSGTDFTLTISRLEPEDFAVYYCQQHAGIPVTFGQGTKVEIK
B2: the Kd with hIL-36R-His [2] turned out to be 0.669 nM.

B3: R49E11VH-h3+L26B11VK (antibody, V domains shown)
VH: QVQLVQSGAEVKKPGASVKVSCKASGYSFTSSWIHWVRQAPGQGLEWMGEINPGSGRSNYNENFQGRVTMTVDTSISTAYMELSRLRSDDTAVYYCTVVFYGEPYFPFWGQGTLVTVSS
VL: EIVLTQSPGTLSLSPGERATLSCRASQSVIYSYLAWYQQKPGQAPRLLIYSASKRASGIPDRFSGSGSGTDFTLTISRLEPEDFAVYYCQQHAGIPVTFGQGTKVEIK
On to B3, for which the dissociation constant Kd with hIL-36R-His [3] came out at 2.91 nM.

B4: Crossmab bispecific antibody, IL-1R3 arm (antibody, V domains shown)
VH: EVQLVESGGGLVQPGGSLRLSCAASGFTFSSYAMSWVRQAPGKGLVWVAEISRGGSHTYYPDTVTGRFTISRDNAKNTLYLQMNSLRAEDTAVYYCARSYGNYPFDYWGQGTTVTVSS
VL: EIVLTQSPATLSLSPGERATLSCSASSSVSYMYWYQQKPGQAPRLLIYDTSNLASGIPARFSGSGSGTDFTLTISSLEPEDFAVYYCQQWSSYPLTFGQGTKLEIK
With B4, in the test with hIL-1R3-His [4], the Kd was 0.761 nM.

B5: Common light chain bispecific antibody, IL-1R3 arm (R1B9VH-h1+L36E9VK) (antibody, V domains shown)
VH: EVQLVESGGGLVQPGGSLRLSCAASGFTFSSYAMSWVRQAPGKGLVWVAEISRGGSHTYYPDTVTGRFTISRDNAKNTLYLQMNSLRAEDTAVYYCARSYGNYPFDYWGQGTTVTVSS
VL: EIVLTQSPGTLSLSPGERATLSCRASQSVIGSYLAWYQQKPGQAPRLLIYSASKLASGIPDRFSGSGSGTDFTLTISRLEPEDFAVYYCQQDTRYPITFGQGTKVEIK
For the molecule B5, binding with hIL-1R3-His [5] was characterised by a dissociation constant (Kd) of 1.44 nM.
